Experimental data published in patent US20250136719A1 (TECHNION RESEARCH AND DEVELOPMENT FOUNDATION, published 2025).

Target: T1, latent 65 kDa heparanase (Hpa65) (UniProt Q9Y251 36-543, limits assumed)
T1 construct: Single-chain latent 65 kDa form coated on the ELISA plate; also called recombinant 65 kDa latent pro-heparanase; pro-heparanase
T1 sequence (looked up): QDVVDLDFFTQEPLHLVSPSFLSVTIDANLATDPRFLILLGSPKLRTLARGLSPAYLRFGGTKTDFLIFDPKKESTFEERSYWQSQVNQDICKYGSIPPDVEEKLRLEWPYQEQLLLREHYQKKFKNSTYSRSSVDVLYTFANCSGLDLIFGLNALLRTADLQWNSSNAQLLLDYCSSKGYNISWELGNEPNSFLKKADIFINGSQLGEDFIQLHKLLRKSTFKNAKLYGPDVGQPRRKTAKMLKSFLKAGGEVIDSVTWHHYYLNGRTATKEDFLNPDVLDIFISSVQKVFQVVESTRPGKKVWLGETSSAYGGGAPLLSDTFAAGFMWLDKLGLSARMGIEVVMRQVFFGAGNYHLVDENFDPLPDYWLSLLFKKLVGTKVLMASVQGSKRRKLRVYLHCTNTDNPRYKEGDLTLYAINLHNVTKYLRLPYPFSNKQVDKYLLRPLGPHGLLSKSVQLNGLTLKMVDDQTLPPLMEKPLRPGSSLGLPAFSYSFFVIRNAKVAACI
Experiment: ELISA, antibody titrated on plate coated with latent 65 kDa heparanase
Experimental: An ELISA method was applied to characterize the preferential recognition of heparanase by mAb A54 vs. control mouse IgG (FIG. 2A). For this purpose, microtiter 96-well plate was coated with latent 65 kDa heparanase (Hpa65). Purified (protein G Sepharose) mAb A54 or control mouse IgG were then added at the indicated concentrations and the extent of binding to the immobilized heparanase was determined by ELISA. […] Next, the purified A54 mAb was subjected SDS-PAGE (FIG. 2B) and Western blot (FIG. 2C, Secondary antibody: Goat Anti-Mouse Kappa-HRP) analyses to further characterize the purity, molecular weight and isotype of the antibody light and heavy chains. Lanes M1 and M2: Protein Marker; Lane 1: Reducing condition; Lane 2: Non-reducing condition; Lane P: Mouse IgG1, Kappa as a positive control. (Ab: antibody: Goat Anti-Mouse IgG-HRP). Briefly, mAb A54 was expressed in 293F cells applying the pcDNA3.4 expression vector and serum free (Expi293F) medium. The antibody isotype was characterized as IgG1-Kappa.

IC50: 450 pM
B1: mAb A54 (antibody, IgG1, V domains shown)
VH: QVQLQQSGAELAKPGASVRMSCKASGYTFTNYWMHWVKQRPGQGLEWIGYINPTTGYTEYNQKFKDKATLTADKSSSTAYMQLSSLTSEDSAVYYCARGGAGYDYDEDYAMDYWGQGTSVTVSS
VL: DIVLTQSPASLAVSLGQRATISCRASESVEYFGTSYMNWYQQKPGQPPKLLIYLASILESGIPARFSGSGSGTDFTLNIHPVEEEDAATYYCQQSNEDPYTFGGGTKLEIK
notes: Murine monoclonal antibody, IgG1-Kappa; Purified on protein G from hybridoma, also expressed in 293F cells; also called A54 mAb; A54 antibody
